Experiment [1] concerns the target T1, rHuman ErbB2/Fc Chimera, CF (Cat# 1129-ER) (human, UniProt P04626 23-652).
T1 construct: Bought from R&D Systems; also called human epidermal growth factor 2 receptor (ErbB2)
Description: Multispot ECL; Fab 930 nM. As to the method: (§1) An 150 μl aliquot of 1% Bovine Serum Albumin (BSA) in Tris-buffered Saline Tween (TBST) was added to each well and allowed to incubate for 30 min at 20° C. followed by washing and tap drying to completely remove any residual solution. Subsequently, a 12.5 μl aliquot of 1% BSA TBST was added to each well followed by the addition of a 12.5 μl aliquot of a purified Fab. The plate was sealed and incubated for 1 hour at 20° C. with shaking.
(§2) Detection antibodies were prepared by individually conjugating both goat anti-human Kappa light chain polyclonal antibody (K3502-1MG, Sigma-Aldrich) and goat anti-human Lambda light chain polyclonal antibody (L1645-1 mL, Sigma-Aldrich) with Ruthenium (II) tris-bipyridine-(4-methylsulfone)-N-hydroxysuccinimide (SULFO-TAG NHS-ester, Meso Scale Discovery) according to the manufacturer's instructions. TAG-detection antibody at 25 μl was added to each well and allowed to incubate for 1 hour at 20° C. with shaking. Finally, 15 μl of Read Buffer P with Surfactant (Cat # R92PC-1, Meso Scale Discovery) was added to each well. The electrochemiluminescence was measured using a Sector Imager 2400 (Meso Scale Discovery). Data was analyzed by comparing the ECL signals for an antigen to the blank of each well. A signal to blank ratio of 4 or more was considered a “Hit” Fab.
(§3) To confirm a “Hit” from the initial Multispot ECL screening, a Fab concentration dependent titration was carried out to determine the Fab-antigen binding affinity.

The target in experiment [2] is T2, rHuman Notch-1/Fc Chimera, CF (Cat# 3647-TK) (human, UniProt P46531 19-526).
T2 construct: Bought from R&D Systems
As to the kind of experiment: Multispot ECL; Fab 930 nM. How it is done: as §1, §2, §3

The target in experiment [3] is T3, rHuman CD44/Fc Chimera, CF (Cat# 3660-CD) (human, UniProt P16070 21-220).
T3 construct: Bought from R&D Systems
As to the kind of experiment: Multispot ECL; Fab 930 nM. How it is done: as §1, §2, §3

The target of experiment [4] is T4, rHuman IGF-1 sR, (IGF-1 sR), CF (Cat# 391-GR) (human, UniProt P08069 31-932).
T4 construct: Bought from R&D Systems; also called insulin-like growth factor-1 soluble receptor
As to the kind of experiment: Multispot ECL; Fab 930 nM. How it is done:
as §1, §2, §3

The target in experiment [5] is T5, rHuman Erythropoietin R/Fc Chimera, CF (Cat# 963-ER) (human, UniProt P19235 25-250).
T5 construct: Bought from R&D Systems; also called EPO R/Fc; Epo R/Fc chimera
T5 sequence (looked up): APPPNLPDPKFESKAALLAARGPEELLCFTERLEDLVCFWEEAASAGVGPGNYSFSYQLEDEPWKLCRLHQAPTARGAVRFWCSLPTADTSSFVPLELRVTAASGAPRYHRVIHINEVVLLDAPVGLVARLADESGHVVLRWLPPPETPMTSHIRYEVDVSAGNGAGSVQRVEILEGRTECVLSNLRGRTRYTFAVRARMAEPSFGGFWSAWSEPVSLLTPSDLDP
As to the kind of experiment: Multispot ECL; Fab 930 nM. How it is done: as §1, §2, §3

In experiment [6] the target is T6, Recombinant Human DLL4 (Cat# 1506-D4/CF) (human, UniProt Q9NR61 27-529).
T6 construct: Bought from R&D Systems; also called rHuman DLL4; hDLL4
As to the kind of experiment: Multispot ECL; Fab 930 nM. How it is done: as §1, §2, §3

Experiment [7] has as its target T1, rHuman ErbB2/Fc Chimera, CF (Cat# …). As to the kind of experiment: Multispot ECL; Fab 14.5 nM. As to the method:
as §1, §2, §3

Experiment [8] deals with T2, rHuman Notch-1/Fc Chimera, CF (Cat# …). As to the kind of experiment: Multispot ECL; Fab 14.5 nM. How it is done:
as §1, §2, §3

Experiment [9] addresses T3, rHuman CD44/Fc Chimera, CF (Cat# …). As to the kind of experiment: Multispot ECL; Fab 14.5 nM. How it is done: as §1, §2, §3
The target in experiment [10] is T4, rHuman IGF-1 sR, (IGF-1 sR), CF (Cat# …). Description: Multispot ECL; Fab 14.5 nM. As to the method:
as §1, §2, §3

Experiment [11] deals with T5, rHuman Erythropoietin R/Fc Chimera, CF …. Description: Multispot ECL; Fab 14.5 nM. As to the method:
as §1, §2, §3

Experiment [12] deals with T6, Recombinant Human DLL4 (Cat# 1506-D4/CF). Description: Multispot ECL; Fab 14.5 nM. As to the method: as §1, §2, §3
The target in experiment [13] is T1, rHuman ErbB2/Fc Chimera, CF (Cat# …). As to the kind of experiment: Multispot ECL; Fab 58.1 nM. How it is done: as §1, §2, §3
In experiment [14] the target is T2, rHuman Notch-1/Fc Chimera, CF (Cat# …). Description: Multispot ECL; Fab 58.1 nM. As to the method: as §1, §2, §3
Experiment [15] addresses T3, rHuman CD44/Fc Chimera, CF (Cat# …). As to the kind of experiment: Multispot ECL; Fab 58.1 nM. As to the method: as §1, §2, §3
In experiment [16] the target is T4, rHuman IGF-1 sR, (IGF-1 sR), CF (Cat# …). As to the kind of experiment: Multispot ECL; Fab 58.1 nM. As to the method:
as §1, §2, §3

The target of experiment [17] is T5, rHuman Erythropoietin R/Fc Chimera, CF …. As to the kind of experiment: Multispot ECL; Fab 58.1 nM. As to the method: as §1, §2, §3
Experiment [18] deals with T6, Recombinant Human DLL4 (Cat# 1506-D4/CF). Description: Multispot ECL; Fab 58.1 nM. As to the method: as §1, §2, §3
In experiment [19] the target is T1, rHuman ErbB2/Fc Chimera, CF (Cat# …). Description: Multispot ECL; Fab 232.5 nM. As to the method:
as §1, §2, §3

Experiment [20] deals with T2, rHuman Notch-1/Fc Chimera, CF (Cat# …). As to the kind of experiment: Multispot ECL; Fab 232.5 nM. How it is done:
as §1, §2, §3

Experiment [21] has as its target T3, rHuman CD44/Fc Chimera, CF (Cat# …). Description: Multispot ECL; Fab 232.5 nM. As to the method:
as §1, §2, §3

The target in experiment [22] is T4, rHuman IGF-1 sR, (IGF-1 sR), CF (Cat# …). As to the kind of experiment: Multispot ECL; Fab 232.5 nM. How it is done: as §1, §2, §3
For experiment [23], the target named is T5, rHuman Erythropoietin R/Fc Chimera, CF …. Description: Multispot ECL; Fab 232.5 nM. How it is done: as §1, §2, §3
Experiment [24] has as its target T6, Recombinant Human DLL4 (Cat# 1506-D4/CF). As to the kind of experiment: Multispot ECL; Fab 232.5 nM. As to the method: as §1, §2, §3

B1: Fab VH1-46_IGHD6-13*01_IGHJ4*01 & O1_IGKJ1*01 (Fab, V domains shown)
VH: QVQLVQSGAEVKKPGASVKVSCKASGYTFTSYYMHWVRQAPGQGLEWMGIINPSGGSTSYAQKFQGRVTMTRDTSTSTVYMELSSLRSEDTAVYYCAREGYSSSWYDYFDYWGQGTLVTVSS
VL: DIVMTQTPLSLPVTPGEPASISCRSSQSLLDSDDGNTYLDWYLQKPGQSPQLLIYTLSYRASGVPDRFSGSGSGTDFTLKISRVEAEDVGVYYCMQRIEFPSWTFGQGTKVEIKR
notes: Germline-derived Fab from E. coli: VH in Plasmid A (CH1, His6 and Flag tags), VL in Plasmid C (kappa CL)
On to B1, for which the ECL signal in experiment [1] is 2220; in experiment [2], 2210; in experiment [3], 1920; in [4], 1920; in experiment [5] it was 3010; in [6] it was 8160. The ECL signal in experiment [7] was 274; in experiment [8], 317; in experiment [9], 212; in [10], 234; in experiment [11], 660; in [12], 1150. Besides, the ECL signal in experiment [13] was found to be 322; in [14] it was 388; in [15], 375; in experiment [16], 343; in experiment [17], 829; in experiment [18], 1880. Also, the ECL signal in experiment [19] was found to be 779; in [20], 778; in experiment [21] it was 607; in experiment [22] it was 569; in experiment [23] it was 1470; in [24] it was 3590.
